Measurements published in patent US20120316071A1 (published 2012).
Each block holds one binder with its values, some of them ahead of it.

Legend:
[1] = biological target: T1, rHuman IGF-1 sR (insulin-like growth factor-1 soluble receptor), CF (R&D Systems Cat#391-GR) (human, UniProt P08069 31-932); assay: MSD multispot ECL, antigen spotted on plate, Fab in solution; blank spot of this row 237
T1 construct: Bought recombinant soluble receptor; The column head prints only 'IGF-1'

[2] = biological target: T2, rHuman HGF R/c-MET/Fc Chimera, CF (R&D Systems Cat#358-MT/CF) (human, UniProt P08581 25-932); assay: as above
T2 construct: Bought recombinant protein; also called HGF R/Fc; Fc part of the bought chimera not given

[3] = biological target: T3, rHuman Notch-1/Fc Chimera, CF (R&D Systems Cat#3647-TK) (human, UniProt P46531 19-526); assay: as above
T3 construct: Bought recombinant protein; Fc part of the bought chimera not given

[4] = biological target: T4, rHuman ErbB2/Fc Chimera, CF (R&D Systems Cat#1129-ER) (human, UniProt P04626 23-652); assay: as above
T4 construct: Bought recombinant protein; Fc part of the bought chimera not given

[5] = biological target: T5, rHuman P-Cadherin/Fc Chimera, CF (R&D Systems Cat#861-PC) (human, UniProt P22223 108-654); assay: as above
T5 construct: Bought recombinant protein; Fc part of the bought chimera not given

[6] = biological target: T6, rHuman Erythropoietin R/Fc Chimera, CF (R&D Systems Cat#963-ER) (human, UniProt P19235 25-250); assay: as above
T6 construct: Bought recombinant protein; also called EPO R; Epo R/Fc; Fc part of the bought chimera not given
T6 sequence (looked up): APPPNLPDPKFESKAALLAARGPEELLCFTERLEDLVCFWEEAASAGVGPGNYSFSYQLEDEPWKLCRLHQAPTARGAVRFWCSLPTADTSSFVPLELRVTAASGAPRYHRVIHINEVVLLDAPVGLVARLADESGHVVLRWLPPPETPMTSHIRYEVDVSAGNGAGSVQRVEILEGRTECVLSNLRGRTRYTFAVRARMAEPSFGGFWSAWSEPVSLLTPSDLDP

[7] = biological target: T7, Recombinant Human DLL4 (R&D Systems Cat#1506-D4/CF) (human, UniProt Q9NR61 27-524); assay: as above
T7 construct: Bought recombinant protein; also called delta-like protein 4; rHuman DLL4

[8] = biological target: T8, rHuman CD44/Fc Chimera, CF (R&D Systems Cat#3660-CD) (human, UniProt P16070 21-220); assay: as above
T8 construct: Bought recombinant protein; Fc part of the bought chimera not given

[9] = biological target: T9, rHuman EGF R/Fc Chimera, CF (R&D Systems Cat#344-ER) (human, UniProt P00533 25-645); assay: as above
T9 construct: Bought recombinant protein; Fc part of the bought chimera not given

[10] = biological target: T1, rHuman IGF-1 sR (insulin-like growth …); assay: MSD multispot ECL, antigen spotted on plate, Fab in solution; blank spot of this row 440
[11] = biological target: T2, rHuman HGF R/c-MET/Fc Chimera, CF (R&D …); assay: as above
[12] = biological target: T3, rHuman Notch-1/Fc Chimera, CF (R&D …); assay: as above
[13] = biological target: T4, rHuman ErbB2/Fc Chimera, CF (R&D …); assay: as above
[14] = biological target: T5, rHuman P-Cadherin/Fc Chimera, CF (R&D …); assay: as above
[15] = biological target: T6, rHuman Erythropoietin R/Fc Chimera, CF …; assay: as above
[16] = biological target: T7, Recombinant Human DLL4 (R&D Systems …); assay: as above
[17] = biological target: T8, rHuman CD44/Fc Chimera, CF (R&D Systems …); assay: as above
[18] = biological target: T9, rHuman EGF R/Fc Chimera, CF (R&D …); assay: as above
[19] = biological target: T1, rHuman IGF-1 sR (insulin-like growth …); assay: MSD multispot ECL, antigen spotted on plate, Fab in solution; blank spot of this row 258
[20] = biological target: T2, rHuman HGF R/c-MET/Fc Chimera, CF (R&D …); assay: as above
[21] = biological target: T3, rHuman Notch-1/Fc Chimera, CF (R&D …); assay: as above
[22] = biological target: T4, rHuman ErbB2/Fc Chimera, CF (R&D …); assay: as above
[23] = biological target: T5, rHuman P-Cadherin/Fc Chimera, CF (R&D …); assay: as above
[24] = biological target: T6, rHuman Erythropoietin R/Fc Chimera, CF …; assay: as above
[25] = biological target: T7, Recombinant Human DLL4 (R&D Systems …); assay: as above
[26] = biological target: T8, rHuman CD44/Fc Chimera, CF (R&D Systems …); assay: as above
[27] = biological target: T9, rHuman EGF R/Fc Chimera, CF (R&D …); assay: as above
[28] = biological target: T1, rHuman IGF-1 sR (insulin-like growth …); assay: MSD multispot ECL, antigen spotted on plate, Fab in solution; blank spot of this row 298
[29] = biological target: T2, rHuman HGF R/c-MET/Fc Chimera, CF (R&D …); assay: as above
[30] = biological target: T3, rHuman Notch-1/Fc Chimera, CF (R&D …); assay: as above
[31] = biological target: T4, rHuman ErbB2/Fc Chimera, CF (R&D …); assay: as above
[32] = biological target: T5, rHuman P-Cadherin/Fc Chimera, CF (R&D …); assay: as above
[33] = biological target: T6, rHuman Erythropoietin R/Fc Chimera, CF …; assay: as above
[34] = biological target: T7, Recombinant Human DLL4 (R&D Systems …); assay: as above
[35] = biological target: T8, rHuman CD44/Fc Chimera, CF (R&D Systems …); assay: as above
[36] = biological target: T9, rHuman EGF R/Fc Chimera, CF (R&D …); assay: as above

T2 sequence (P08581 25-932, change not shown): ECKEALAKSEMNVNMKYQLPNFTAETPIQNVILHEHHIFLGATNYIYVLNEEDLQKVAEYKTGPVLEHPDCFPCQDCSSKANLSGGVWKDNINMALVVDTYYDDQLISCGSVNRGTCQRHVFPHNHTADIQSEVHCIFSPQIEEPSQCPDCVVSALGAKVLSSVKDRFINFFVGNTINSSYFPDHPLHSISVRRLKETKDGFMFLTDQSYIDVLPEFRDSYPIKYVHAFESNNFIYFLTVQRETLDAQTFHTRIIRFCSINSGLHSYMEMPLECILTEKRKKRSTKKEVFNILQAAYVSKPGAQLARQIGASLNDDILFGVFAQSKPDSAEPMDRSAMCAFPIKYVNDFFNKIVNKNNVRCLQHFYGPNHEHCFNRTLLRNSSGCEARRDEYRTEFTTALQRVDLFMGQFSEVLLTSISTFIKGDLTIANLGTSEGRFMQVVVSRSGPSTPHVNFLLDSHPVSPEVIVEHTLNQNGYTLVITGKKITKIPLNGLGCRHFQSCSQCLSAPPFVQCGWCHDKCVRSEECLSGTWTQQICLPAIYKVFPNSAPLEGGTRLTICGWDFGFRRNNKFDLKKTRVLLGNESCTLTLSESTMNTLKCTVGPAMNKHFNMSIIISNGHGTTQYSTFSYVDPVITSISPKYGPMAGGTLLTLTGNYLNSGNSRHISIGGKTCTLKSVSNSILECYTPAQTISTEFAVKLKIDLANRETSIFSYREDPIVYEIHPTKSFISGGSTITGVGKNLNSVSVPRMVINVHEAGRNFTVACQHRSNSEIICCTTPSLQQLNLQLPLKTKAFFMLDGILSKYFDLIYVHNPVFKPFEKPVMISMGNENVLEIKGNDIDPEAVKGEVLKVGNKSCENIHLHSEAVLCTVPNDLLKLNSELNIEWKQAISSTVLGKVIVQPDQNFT

ECL signal [1]: 336 | ECL signal [2]: 228 | ECL signal [3]: 313 | ECL signal [4]: 277 | ECL signal [5]: 338 | ECL signal [6]: 440 | ECL signal [7]: 51600 | ECL signal [8]: 439 | ECL signal [9]: 266
B1: Fab VH1-46_IGHD6-6*01_IGHJ1*01 S102A/S103P/S104F/H111F (H:APFF) & L6_IGKJ1*01 S76E (Fab, V domains shown)
VH: QVQLVQSGAEVKKPGASVKVSCKASGYTFTSYYMHWVRQAPGQGLEWMGIINPSGGSTSYAQKFQGRVTMTRDTSTSTVYMELSSLRSEDTAVYYCAREEYAPFSAEYFQFWGQGTLVTVSS
VL: EIVLTQSPATLSLSPGERATLSCRASQSVSSYLAWYQQKPGQAPRLLIYDASNRATGIPARFSGSGSGTDFTLTIESLEPEDFAVYYCQQRSNWPPWTFGQGTKVEIKR
notes: Fab expressed in E. coli from plasmid A (heavy chain CH1, His6 and Flag tags) and plasmid C (kappa CL)

ECL signal [10]: 378 | ECL signal [11]: 429 | ECL signal [12]: 298 | ECL signal [13]: 436 | ECL signal [14]: 329 | ECL signal [15]: 384 | ECL signal [16]: 52000 | ECL signal [17]: 369 | ECL signal [18]: 385
B2: Fab VH1-46_IGHD6-6*01_IGHJ1*01 S102A/S103P/S104F/H111F (H:APFF) & L6_IGKJ1*01 S76N (Fab, V domains shown)
VH: QVQLVQSGAEVKKPGASVKVSCKASGYTFTSYYMHWVRQAPGQGLEWMGIINPSGGSTSYAQKFQGRVTMTRDTSTSTVYMELSSLRSEDTAVYYCAREEYAPFSAEYFQFWGQGTLVTVSS
VL: EIVLTQSPATLSLSPGERATLSCRASQSVSSYLAWYQQKPGQAPRLLIYDASNRATGIPARFSGSGSGTDFTLTINSLEPEDFAVYYCQQRSNWPPWTFGQGTKVEIKR
notes: as for B1

ECL signal [19]: 188 | ECL signal [20]: 386 | ECL signal [21]: 255 | ECL signal [22]: 264 | ECL signal [23]: 364 | ECL signal [24]: 430 | ECL signal [25]: 48300 | ECL signal [26]: 287 | ECL signal [27]: 324
B3: Fab VH1-46_IGHD6-6*01_IGHJ1*01 S102A/S103P/S104F/H111F (H:APFF) & L6_IGKJ1*01 S76Q (Fab, V domains shown)
VH: QVQLVQSGAEVKKPGASVKVSCKASGYTFTSYYMHWVRQAPGQGLEWMGIINPSGGSTSYAQKFQGRVTMTRDTSTSTVYMELSSLRSEDTAVYYCAREEYAPFSAEYFQFWGQGTLVTVSS
VL: EIVLTQSPATLSLSPGERATLSCRASQSVSSYLAWYQQKPGQAPRLLIYDASNRATGIPARFSGSGSGTDFTLTIQSLEPEDFAVYYCQQRSNWPPWTFGQGTKVEIKR
notes: as for B1

ECL signal [28]: 347 | ECL signal [29]: 394 | ECL signal [30]: 402 | ECL signal [31]: 260 | ECL signal [32]: 271 | ECL signal [33]: 371 | ECL signal [34]: 29800 | ECL signal [35]: 313 | ECL signal [36]: 331
B4: Fab VH1-46_IGHD6-6*01_IGHJ1*01 S102A/S103P/S104F/H111F (H:APFF) & L6_IGKJ1*01 S76P (Fab, V domains shown)
VH: QVQLVQSGAEVKKPGASVKVSCKASGYTFTSYYMHWVRQAPGQGLEWMGIINPSGGSTSYAQKFQGRVTMTRDTSTSTVYMELSSLRSEDTAVYYCAREEYAPFSAEYFQFWGQGTLVTVSS
VL: EIVLTQSPATLSLSPGERATLSCRASQSVSSYLAWYQQKPGQAPRLLIYDASNRATGIPARFSGSGSGTDFTLTIPSLEPEDFAVYYCQQRSNWPPWTFGQGTKVEIKR
notes: as for B1
